Test results taken from patent US20110118131A1 (published 2011).

T1: Ep-CAM (UniProt P16422 24-265, limits assumed)
T1 construct: Immobilised on the Biacore chip; construct not described
T1 sequence (looked up): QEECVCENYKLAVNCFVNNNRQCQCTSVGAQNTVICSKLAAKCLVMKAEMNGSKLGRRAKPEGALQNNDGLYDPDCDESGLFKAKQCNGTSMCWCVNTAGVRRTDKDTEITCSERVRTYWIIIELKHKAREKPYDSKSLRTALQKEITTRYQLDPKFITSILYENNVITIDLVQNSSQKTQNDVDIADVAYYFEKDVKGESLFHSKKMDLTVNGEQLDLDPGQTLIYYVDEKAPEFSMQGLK

T2: Ep-CAM (UniProt P16422 24-265, limits assumed)
T2 sequence (looked up): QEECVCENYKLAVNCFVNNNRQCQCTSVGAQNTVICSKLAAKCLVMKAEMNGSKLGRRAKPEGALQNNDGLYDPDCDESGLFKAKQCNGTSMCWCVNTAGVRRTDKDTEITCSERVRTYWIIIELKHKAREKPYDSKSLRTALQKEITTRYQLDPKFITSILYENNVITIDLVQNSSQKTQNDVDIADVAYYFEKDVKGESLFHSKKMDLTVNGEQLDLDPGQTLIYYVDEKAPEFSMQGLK


What follows are binders tested against T1, Ep-CAM (assay: Biacore, Fab periplasmic extract).

binding result	fold difference in affinity vs original ING-1	Binder
no binding	–	ING-1 Fab, light chain E98P (Fab, V domains shown, Fab in periplasmic extract) VH: QIQLVQSGPELKKPGETVKISCKASGYTFTKYGMNWVKQAPGKGLKWMGWINTYTEEPTYGDDFKGRFAFSLETSASTANLQINNLKSEDTATYFCARFGSAVDYWGQGTSVTVSS VL: DIVMTQAAFSNPVTLGTSGSISCRSSKSLLHSNGITYLYWYLQKPGQSPQLLIYQMSNLASGVPDRFSSSGSGTDFTLRISRVEAEDVGVYYCAQNLPLPRTFGGGTKLEMKR
–	0.7 fold	ING-1 Fab, light chain I35P (Fab, V domains shown, Fab in periplasmic extract) VH: QIQLVQSGPELKKPGETVKISCKASGYTFTKYGMNWVKQAPGKGLKWMGWINTYTEEPTYGDDFKGRFAFSLETSASTANLQINNLKSEDTATYFCARFGSAVDYWGQGTSVTVSS VL: DIVMTQAAFSNPVTLGTSGSISCRSSKSLLHSNGPTYLYWYLQKPGQSPQLLIYQMSNLASGVPDRFSSSGSGTDFTLRISRVEAEDVGVYYCAQNLELPRTFGGGTKLEMKR
–	0.6 fold	ING-1 Fab, light chain I35L (Fab, V domains shown, Fab in periplasmic extract) VH: QIQLVQSGPELKKPGETVKISCKASGYTFTKYGMNWVKQAPGKGLKWMGWINTYTEEPTYGDDFKGRFAFSLETSASTANLQINNLKSEDTATYFCARFGSAVDYWGQGTSVTVSS VL: DIVMTQAAFSNPVTLGTSGSISCRSSKSLLHSNGLTYLYWYLQKPGQSPQLLIYQMSNLASGVPDRFSSSGSGTDFTLRISRVEAEDVGVYYCAQNLELPRTFGGGTKLEMKR

The binders below were run against T2, Ep-CAM (assay: Biacore, Fab periplasmic extract on immobilised Epcam).

fold difference in affinity vs original	binding result	Binder
0.04 fold	–	ING-1 Fab, heavy chain W50L (Fab, V domains shown, Fab in periplasmic extract) VH: QIQLVQSGPELKKPGETVKISCKASGYTFTKYGMNWVKQAPGKGLKWMGLINTYTEEPTYGDDFKGRFAFSLETSASTANLQINNLKSEDTATYFCARFGSAVDYWGQGTSVTVSS VL: DIVMTQAAFSNPVTLGTSGSISCRSSKSLLHSNGITYLYWYLQKPGQSPQLLIYQMSNLASGVPDRFSSSGSGTDFTLRISRVEAEDVGVYYCAQNLELPRTFGGGTKLEMKR
–	no binding	ING-1 Fab, heavy chain T59P (Fab, V domains shown, Fab in periplasmic extract) VH: QIQLVQSGPELKKPGETVKISCKASGYTFTKYGMNWVKQAPGKGLKWMGWINTYTEEPPYGDDFKGRFAFSLETSASTANLQINNLKSEDTATYFCARFGSAVDYWGQGTSVTVSS VL: DIVMTQAAFSNPVTLGTSGSISCRSSKSLLHSNGITYLYWYLQKPGQSPQLLIYQMSNLASGVPDRFSSSGSGTDFTLRISRVEAEDVGVYYCAQNLELPRTFGGGTKLEMKR
0.02 fold	–	ING-1 Fab, heavy chain T55G (Fab, V domains shown, Fab in periplasmic extract) VH: QIQLVQSGPELKKPGETVKISCKASGYTFTKYGMNWVKQAPGKGLKWMGWINTYGEEPTYGDDFKGRFAFSLETSASTANLQINNLKSEDTATYFCARFGSAVDYWGQGTSVTVSS VL: DIVMTQAAFSNPVTLGTSGSISCRSSKSLLHSNGITYLYWYLQKPGQSPQLLIYQMSNLASGVPDRFSSSGSGTDFTLRISRVEAEDVGVYYCAQNLELPRTFGGGTKLEMKR
0.01 fold	–	ING-1 Fab, heavy chain Y32P (Fab, V domains shown, Fab in periplasmic extract) VH: QIQLVQSGPELKKPGETVKISCKASGYTFTKPGMNWVKQAPGKGLKWMGWINTYTEEPTYGDDFKGRFAFSLETSASTANLQINNLKSEDTATYFCARFGSAVDYWGQGTSVTVSS VL: DIVMTQAAFSNPVTLGTSGSISCRSSKSLLHSNGITYLYWYLQKPGQSPQLLIYQMSNLASGVPDRFSSSGSGTDFTLRISRVEAEDVGVYYCAQNLELPRTFGGGTKLEMKR
–	no binding	ING-1 Fab, heavy chain W50P (Fab, V domains shown, Fab in periplasmic extract) VH: QIQLVQSGPELKKPGETVKISCKASGYTFTKYGMNWVKQAPGKGLKWMGPINTYTEEPTYGDDFKGRFAFSLETSASTANLQINNLKSEDTATYFCARFGSAVDYWGQGTSVTVSS VL: DIVMTQAAFSNPVTLGTSGSISCRSSKSLLHSNGITYLYWYLQKPGQSPQLLIYQMSNLASGVPDRFSSSGSGTDFTLRISRVEAEDVGVYYCAQNLELPRTFGGGTKLEMKR
0.02 fold	–	ING-1 Fab, heavy chain W50V (Fab, V domains shown, Fab in periplasmic extract) VH: QIQLVQSGPELKKPGETVKISCKASGYTFTKYGMNWVKQAPGKGLKWMGVINTYTEEPTYGDDFKGRFAFSLETSASTANLQINNLKSEDTATYFCARFGSAVDYWGQGTSVTVSS VL: DIVMTQAAFSNPVTLGTSGSISCRSSKSLLHSNGITYLYWYLQKPGQSPQLLIYQMSNLASGVPDRFSSSGSGTDFTLRISRVEAEDVGVYYCAQNLELPRTFGGGTKLEMKR
0.01 fold	–	ING-1 Fab, heavy chain Y32A (Fab, V domains shown, Fab in periplasmic extract) VH: QIQLVQSGPELKKPGETVKISCKASGYTFTKAGMNWVKQAPGKGLKWMGWINTYTEEPTYGDDFKGRFAFSLETSASTANLQINNLKSEDTATYFCARFGSAVDYWGQGTSVTVSS VL: DIVMTQAAFSNPVTLGTSGSISCRSSKSLLHSNGITYLYWYLQKPGQSPQLLIYQMSNLASGVPDRFSSSGSGTDFTLRISRVEAEDVGVYYCAQNLELPRTFGGGTKLEMKR
0.08 fold	–	ING-1 Fab, heavy chain Y105A (Fab, V domains shown, Fab in periplasmic extract) VH: QIQLVQSGPELKKPGETVKISCKASGYTFTKYGMNWVKQAPGKGLKWMGWINTYTEEPTYGDDFKGRFAFSLETSASTANLQINNLKSEDTATYFCARFGSAVDAWGQGTSVTVSS VL: DIVMTQAAFSNPVTLGTSGSISCRSSKSLLHSNGITYLYWYLQKPGQSPQLLIYQMSNLASGVPDRFSSSGSGTDFTLRISRVEAEDVGVYYCAQNLELPRTFGGGTKLEMKR
0.05 fold	–	ING-1 Fab, heavy chain Y32L (Fab, V domains shown, Fab in periplasmic extract) VH: QIQLVQSGPELKKPGETVKISCKASGYTFTKLGMNWVKQAPGKGLKWMGWINTYTEEPTYGDDFKGRFAFSLETSASTANLQINNLKSEDTATYFCARFGSAVDYWGQGTSVTVSS VL: DIVMTQAAFSNPVTLGTSGSISCRSSKSLLHSNGITYLYWYLQKPGQSPQLLIYQMSNLASGVPDRFSSSGSGTDFTLRISRVEAEDVGVYYCAQNLELPRTFGGGTKLEMKR
0.03 fold	–	ING-1 Fab, heavy chain Y32I (Fab, V domains shown, Fab in periplasmic extract) VH: QIQLVQSGPELKKPGETVKISCKASGYTFTKIGMNWVKQAPGKGLKWMGWINTYTEEPTYGDDFKGRFAFSLETSASTANLQINNLKSEDTATYFCARFGSAVDYWGQGTSVTVSS VL: DIVMTQAAFSNPVTLGTSGSISCRSSKSLLHSNGITYLYWYLQKPGQSPQLLIYQMSNLASGVPDRFSSSGSGTDFTLRISRVEAEDVGVYYCAQNLELPRTFGGGTKLEMKR
0.03 fold	–	ING-1 Fab, heavy chain W50T (Fab, V domains shown, Fab in periplasmic extract) VH: QIQLVQSGPELKKPGETVKISCKASGYTFTKYGMNWVKQAPGKGLKWMGTINTYTEEPTYGDDFKGRFAFSLETSASTANLQINNLKSEDTATYFCARFGSAVDYWGQGTSVTVSS VL: DIVMTQAAFSNPVTLGTSGSISCRSSKSLLHSNGITYLYWYLQKPGQSPQLLIYQMSNLASGVPDRFSSSGSGTDFTLRISRVEAEDVGVYYCAQNLELPRTFGGGTKLEMKR
–	no binding	ING-1 Fab, heavy chain Y105P (Fab, V domains shown, Fab in periplasmic extract) VH: QIQLVQSGPELKKPGETVKISCKASGYTFTKYGMNWVKQAPGKGLKWMGWINTYTEEPTYGDDFKGRFAFSLETSASTANLQINNLKSEDTATYFCARFGSAVDPWGQGTSVTVSS VL: DIVMTQAAFSNPVTLGTSGSISCRSSKSLLHSNGITYLYWYLQKPGQSPQLLIYQMSNLASGVPDRFSSSGSGTDFTLRISRVEAEDVGVYYCAQNLELPRTFGGGTKLEMKR
–	no binding	ING-1 Fab, heavy chain Y105G (Fab, V domains shown, Fab in periplasmic extract) VH: QIQLVQSGPELKKPGETVKISCKASGYTFTKYGMNWVKQAPGKGLKWMGWINTYTEEPTYGDDFKGRFAFSLETSASTANLQINNLKSEDTATYFCARFGSAVDGWGQGTSVTVSS VL: DIVMTQAAFSNPVTLGTSGSISCRSSKSLLHSNGITYLYWYLQKPGQSPQLLIYQMSNLASGVPDRFSSSGSGTDFTLRISRVEAEDVGVYYCAQNLELPRTFGGGTKLEMKR
0.02 fold	–	ING-1 Fab, heavy chain Y32G (Fab, V domains shown, Fab in periplasmic extract) VH: QIQLVQSGPELKKPGETVKISCKASGYTFTKGGMNWVKQAPGKGLKWMGWINTYTEEPTYGDDFKGRFAFSLETSASTANLQINNLKSEDTATYFCARFGSAVDYWGQGTSVTVSS VL: DIVMTQAAFSNPVTLGTSGSISCRSSKSLLHSNGITYLYWYLQKPGQSPQLLIYQMSNLASGVPDRFSSSGSGTDFTLRISRVEAEDVGVYYCAQNLELPRTFGGGTKLEMKR
0.03 fold	–	ING-1 Fab, heavy chain W50A (Fab, V domains shown, Fab in periplasmic extract) VH: QIQLVQSGPELKKPGETVKISCKASGYTFTKYGMNWVKQAPGKGLKWMGAINTYTEEPTYGDDFKGRFAFSLETSASTANLQINNLKSEDTATYFCARFGSAVDYWGQGTSVTVSS VL: DIVMTQAAFSNPVTLGTSGSISCRSSKSLLHSNGITYLYWYLQKPGQSPQLLIYQMSNLASGVPDRFSSSGSGTDFTLRISRVEAEDVGVYYCAQNLELPRTFGGGTKLEMKR
0.03 fold	–	ING-1 Fab, heavy chain W50G (Fab, V domains shown, Fab in periplasmic extract) VH: QIQLVQSGPELKKPGETVKISCKASGYTFTKYGMNWVKQAPGKGLKWMGGINTYTEEPTYGDDFKGRFAFSLETSASTANLQINNLKSEDTATYFCARFGSAVDYWGQGTSVTVSS VL: DIVMTQAAFSNPVTLGTSGSISCRSSKSLLHSNGITYLYWYLQKPGQSPQLLIYQMSNLASGVPDRFSSSGSGTDFTLRISRVEAEDVGVYYCAQNLELPRTFGGGTKLEMKR
0.07 fold	–	ING-1 Fab, heavy chain W50I (Fab, V domains shown, Fab in periplasmic extract) VH: QIQLVQSGPELKKPGETVKISCKASGYTFTKYGMNWVKQAPGKGLKWMGIINTYTEEPTYGDDFKGRFAFSLETSASTANLQINNLKSEDTATYFCARFGSAVDYWGQGTSVTVSS VL: DIVMTQAAFSNPVTLGTSGSISCRSSKSLLHSNGITYLYWYLQKPGQSPQLLIYQMSNLASGVPDRFSSSGSGTDFTLRISRVEAEDVGVYYCAQNLELPRTFGGGTKLEMKR
